Measurements: US20130058934A1 (Novartis, published 2013)

Legend:
cynoFcRn = target: T1, cynoFcRn (cynomolgus monkey, UniProt Q8SPV9); test: Biacore, cynoFcRn at pH 6.0
T1 construct: also called cynomolgus FcRn

human FcRn = human FcRn (human, UniProt P55899 24-297; P61769 21-119, limits assumed); test: Biacore, pH 6.0; human FcRn at pH 6.0, Biacore; parental IgG, not IgG-scFv
LRP6 PD1/2 = target: T2, LRP6 PD1/2 (human, UniProt O75581 19-629); test: Biacore T-100 SPR, antibody captured by anti-human IgG Fc on a CM4 chip, PD1/2 injected; N = 4
T2 construct: range 19-629; Recombinant soluble fragment; also called Propeller Domains 1-2 of LRP6; recombinant LRP6 PD1/2
T2 sequence (looked up): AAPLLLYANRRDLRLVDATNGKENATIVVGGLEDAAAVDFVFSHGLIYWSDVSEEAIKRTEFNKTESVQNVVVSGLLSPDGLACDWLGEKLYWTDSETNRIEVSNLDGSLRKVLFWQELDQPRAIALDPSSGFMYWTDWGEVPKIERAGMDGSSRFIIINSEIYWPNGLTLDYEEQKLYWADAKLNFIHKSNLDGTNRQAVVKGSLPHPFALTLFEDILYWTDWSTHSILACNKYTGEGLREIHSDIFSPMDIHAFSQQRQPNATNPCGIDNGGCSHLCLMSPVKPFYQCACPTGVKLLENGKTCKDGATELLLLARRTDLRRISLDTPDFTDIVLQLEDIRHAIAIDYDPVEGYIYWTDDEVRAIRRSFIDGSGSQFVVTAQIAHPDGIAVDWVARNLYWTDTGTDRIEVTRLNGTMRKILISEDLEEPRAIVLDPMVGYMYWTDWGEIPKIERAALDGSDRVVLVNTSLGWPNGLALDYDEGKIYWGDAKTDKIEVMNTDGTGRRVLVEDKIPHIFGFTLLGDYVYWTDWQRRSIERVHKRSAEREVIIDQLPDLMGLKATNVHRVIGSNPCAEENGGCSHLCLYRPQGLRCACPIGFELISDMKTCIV
Method: The carboxymethyl dextran surface was activated with a 7 min injection of a 1:1 ratio of 0.4 M EDC (1-Ethyl-3-[3-dimethylaminopropyl]carbodiimide hydrochloride) and 0.1 M NHS(N-hydroxysuccinimide). […] PD1/2 and PD3/4 were prepared as two fold concentration series starting at 50 nM, and injected at 30 μl/min for 1 min. […] The surfaces were then regenerated two times with 10 mM glycine (pH 2.2). […] PD3/4 at a saturating concentration of 100 nM was then flowed over the surface at a flow rate of 30 μl/min for 30 min. A saturating concentration of 100 nM PD1/2 was injected immediately after the PD3/4. The dissociation constant (KD), association (kₒₙ), and dissociation (koff) rates were calculated from the baseline subtracted corrected binding curves using the BIAevaluation software (GE Healthcare).

Kd (cynoFcRn): 280 nM
Kd (human FcRn): 23 nM
Kd (LRP6 PD1/2): 1.08 nM
koff (LRP6 PD1/2): 9.05e-05 s⁻¹
kon (LRP6 PD1/2): 87200 M⁻¹ s⁻¹
B1: MOR08168 hIgG1LALA (antibody)
heavy: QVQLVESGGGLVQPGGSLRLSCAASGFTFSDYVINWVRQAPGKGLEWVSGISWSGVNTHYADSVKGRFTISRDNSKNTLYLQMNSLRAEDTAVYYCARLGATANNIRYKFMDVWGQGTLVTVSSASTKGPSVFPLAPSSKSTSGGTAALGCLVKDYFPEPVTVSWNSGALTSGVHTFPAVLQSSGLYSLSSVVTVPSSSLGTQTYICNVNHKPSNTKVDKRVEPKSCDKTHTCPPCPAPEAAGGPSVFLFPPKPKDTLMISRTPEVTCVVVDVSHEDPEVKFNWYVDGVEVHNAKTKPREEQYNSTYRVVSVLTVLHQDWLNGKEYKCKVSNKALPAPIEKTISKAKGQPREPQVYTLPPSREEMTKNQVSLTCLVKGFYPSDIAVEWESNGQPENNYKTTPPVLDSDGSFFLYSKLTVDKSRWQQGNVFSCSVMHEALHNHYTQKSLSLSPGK
light: DIELTQPPSVSVAPGQTARISCSGDSLRNKVYWYQQKPGQAPVLVIYKNNRPSGIPERFSGSNSGNTATLTISGTQAEDEADYYCQSYDGQKSLVFGGGTKLTVLGQPKAAPSVTLFPPSSEELQANKATLVCLISDFYPGAVTVAWKADSSPVKAGVETTTPSKQSNNKYAASSYLSLTPEQWKSHRSYSCQVTHEGSTVEKTVAPTECS
notes: Human IgG1 LALA / lambda; also called Propeller 1 IgG (MOR08168); MOR08168 (propeller 1 antibody)
